Experimental data from patent publication US20250051465A1 (published 2025).

B1: H4H16650P2 (antibody, human IgG4, V domains shown)
VH: QVQLVESGGGVVQPGKSLRLSCVASGFTFSSDAMYWVRQAPGKGLEWVAVIYYDGNYQYYEDSVKGRFTISRDNSQNTLDLQMNSLRVDDTAVYFCARLNWDYWYLDLWGRGTLVTVSS
VL: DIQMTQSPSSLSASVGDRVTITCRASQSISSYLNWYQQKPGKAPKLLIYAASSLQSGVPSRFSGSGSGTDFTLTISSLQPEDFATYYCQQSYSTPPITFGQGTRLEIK
notes: Fully human antibody with human IgG4 Fc (H4H prefix)
B2: H4H18445P2 (antibody, human IgG4, V domains shown)
VH: QVQLQESGPGLVKPSQTLSLTCTVSGGSISSGGDYWSWIRQLPGKGLEWIGYIYYSGSAYYNPSLKSRGTISIDTSKNQFSLKLTSVTAADTAVYFCVKLRFLEWFLGGWFGPWGQGTLVTVSS
VL: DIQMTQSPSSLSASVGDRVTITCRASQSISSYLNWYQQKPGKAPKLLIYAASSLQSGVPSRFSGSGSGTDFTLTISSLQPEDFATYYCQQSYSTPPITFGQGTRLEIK
notes: as for B1
B3: H4H16679P2 (antibody, human IgG4, V domains shown)
VH: QVQLVESGGGVVQPGRSLRLSCTASGFTFSSYAMYWVRQAPGKGLEWVSVIYYDGSYKYYADSVKGRFTISRDNSKNTLYLQMDSLRAEDTAVYYCASYNWNYWYFDFWGRGTLVTVSS
VL: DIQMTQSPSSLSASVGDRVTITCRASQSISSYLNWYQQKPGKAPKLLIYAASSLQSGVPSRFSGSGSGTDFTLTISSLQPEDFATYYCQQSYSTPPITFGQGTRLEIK
notes: as for B1
B4: H4H18446P2 (antibody, human IgG4, V domains shown)
VH: EVQLVESGGGLVQPGGSLRLSCAASGFTFSNYGMTWVRQAPGKGLEWVSAITGGGGSTYYSNSVKGRFTISRDNSKNTVYLRMNSVRAEDTAVYYCAKYKWNFVDDWGQGTTVTVSS
VL: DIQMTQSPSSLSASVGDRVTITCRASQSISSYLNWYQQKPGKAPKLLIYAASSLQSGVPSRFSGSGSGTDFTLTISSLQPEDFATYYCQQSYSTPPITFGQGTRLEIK
notes: as for B1
B5: H4H18449P2 (antibody, human IgG4, V domains shown)
VH: EVQLVESGGGLVQPGGSLRLSCVASGFTFNKYDMHWVRQTTGKGLEWVSGIDTDGDTYYPGSVKGRFTISRENAENSLYLQMNGLRVGDTAVYYCARWPWSGFYGAFDIWGQGTMVTVSS
VL: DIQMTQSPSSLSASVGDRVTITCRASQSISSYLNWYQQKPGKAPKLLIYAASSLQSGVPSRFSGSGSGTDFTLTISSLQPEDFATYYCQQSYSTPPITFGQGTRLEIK
notes: as for B1
B6: H4H18417P2 (antibody, human IgG4, V domains shown)
VH: QVQLVESGGGVVQPGRSLRLSCAASGFTFSTYGMHWVRQAPGKGLEWVSVISYDESNKYYADSVKGRFTISRDNSKNALYLQMNSLRNEDTAVYYCARDRPFGLVTGWFDPWGQGTLVTVSS
VL: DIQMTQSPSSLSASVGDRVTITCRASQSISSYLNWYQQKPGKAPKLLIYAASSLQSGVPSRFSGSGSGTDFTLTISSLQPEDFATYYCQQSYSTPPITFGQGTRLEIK
notes: as for B1
B7: H4H18438P2 (antibody, human IgG4, V domains shown)
VH: QVQLVESGGGVVQPGRSLRLSCAASGFSFNTYGMHWVRQAPGKGLEWVTIIWYDGSIKYYADSVKGRFTISRDNSKNTLYLQMNSLRAEDTAVYYCARGGYSGYLYFDYWGQGTLVTVSS
VL: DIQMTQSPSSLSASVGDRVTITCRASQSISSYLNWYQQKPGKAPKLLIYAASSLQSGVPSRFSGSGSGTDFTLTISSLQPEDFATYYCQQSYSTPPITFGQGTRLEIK
notes: as for B1

Molecular target: rat LEPR extracellular domain expressed with a C-terminal myc-myc-hexahistidine tag (rLEPR.mmh) (rat, UniProt Q62959 22-839)
Assay: SPR, captured mAb, 25C and 37C

Sequence of rat LEPR extracellular domain expressed with a C-terminal myc-myc-hexahistidine tag (rLEPR.mmh) (Q62959 other isoform, or with tags, fused parts or gaps): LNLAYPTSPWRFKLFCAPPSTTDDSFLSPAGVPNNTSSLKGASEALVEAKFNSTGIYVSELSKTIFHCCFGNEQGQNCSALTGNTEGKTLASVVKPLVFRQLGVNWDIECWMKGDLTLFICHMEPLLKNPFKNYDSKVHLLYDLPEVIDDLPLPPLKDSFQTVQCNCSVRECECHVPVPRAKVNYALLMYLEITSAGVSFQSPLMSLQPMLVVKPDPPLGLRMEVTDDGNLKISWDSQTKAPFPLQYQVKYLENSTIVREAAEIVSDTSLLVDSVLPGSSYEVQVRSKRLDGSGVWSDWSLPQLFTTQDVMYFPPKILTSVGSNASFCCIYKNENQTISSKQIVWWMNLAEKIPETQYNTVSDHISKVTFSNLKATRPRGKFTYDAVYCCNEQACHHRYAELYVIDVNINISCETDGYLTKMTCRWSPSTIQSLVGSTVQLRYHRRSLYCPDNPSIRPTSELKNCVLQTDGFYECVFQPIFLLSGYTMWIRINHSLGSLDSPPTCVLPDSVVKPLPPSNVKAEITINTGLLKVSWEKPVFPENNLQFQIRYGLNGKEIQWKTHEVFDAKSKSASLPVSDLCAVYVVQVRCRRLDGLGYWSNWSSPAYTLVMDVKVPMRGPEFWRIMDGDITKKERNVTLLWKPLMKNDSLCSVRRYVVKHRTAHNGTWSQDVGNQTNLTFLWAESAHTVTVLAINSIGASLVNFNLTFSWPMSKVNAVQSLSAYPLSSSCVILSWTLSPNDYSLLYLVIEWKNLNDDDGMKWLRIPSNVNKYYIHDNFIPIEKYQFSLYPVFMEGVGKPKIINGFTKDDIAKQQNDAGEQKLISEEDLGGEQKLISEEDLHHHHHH

binding result	Binder
no binding	B1
no binding	B2
no binding	B3
no binding	B4
no binding	B5
no binding	B6
no binding	B7

Molecular target: mouse LEPR extracellular domain expressed with a C-terminal myc-myc-hexahistidine tag (mLEPR.mmh) (mouse, UniProt P48356 22-839)
Assay: SPR, captured mAb, 25C and 37C

Sequence of mouse LEPR extracellular domain expressed with a C-terminal myc-myc-hexahistidine tag (mLEPR.mmh) (P48356 other isoform, or with tags, fused parts or gaps): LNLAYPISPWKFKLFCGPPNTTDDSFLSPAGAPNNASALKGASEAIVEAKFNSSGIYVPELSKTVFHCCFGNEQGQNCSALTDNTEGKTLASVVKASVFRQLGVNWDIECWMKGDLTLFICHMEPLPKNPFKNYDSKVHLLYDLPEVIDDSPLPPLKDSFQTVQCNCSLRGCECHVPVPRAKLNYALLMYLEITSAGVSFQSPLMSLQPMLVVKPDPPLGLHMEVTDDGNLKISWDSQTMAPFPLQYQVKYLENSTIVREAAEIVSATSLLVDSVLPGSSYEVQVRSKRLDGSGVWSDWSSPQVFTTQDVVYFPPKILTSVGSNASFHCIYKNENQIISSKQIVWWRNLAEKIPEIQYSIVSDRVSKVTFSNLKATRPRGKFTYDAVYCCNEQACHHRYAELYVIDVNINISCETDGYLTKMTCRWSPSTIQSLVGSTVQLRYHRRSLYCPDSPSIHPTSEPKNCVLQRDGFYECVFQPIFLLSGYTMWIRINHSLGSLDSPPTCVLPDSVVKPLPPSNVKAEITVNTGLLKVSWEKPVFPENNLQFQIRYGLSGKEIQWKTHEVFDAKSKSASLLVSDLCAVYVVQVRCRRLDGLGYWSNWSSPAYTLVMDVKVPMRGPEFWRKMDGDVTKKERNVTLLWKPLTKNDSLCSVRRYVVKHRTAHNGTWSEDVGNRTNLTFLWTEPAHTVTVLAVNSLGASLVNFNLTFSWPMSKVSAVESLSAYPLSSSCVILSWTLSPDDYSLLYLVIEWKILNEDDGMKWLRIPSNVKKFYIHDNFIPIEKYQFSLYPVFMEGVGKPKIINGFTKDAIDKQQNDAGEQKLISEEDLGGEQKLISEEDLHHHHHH

binding result	Binder
no binding	B1
no binding	B2
no binding	B3
no binding	B4
no binding	B5
no binding	B6
no binding	B7

Molecular target: T1, human LEPR CRH1-Ig (D2,D3)-MMH (human, UniProt P48357 230-427, limits assumed)
T1 construct: domain: CRH1-Ig (D2,D3); Transiently expressed, captured from supernatant on anti-myc beads
Assay: Luminex, myc-captured LEPR domain
Description: (§1) Aliquots of microspheres with immobilized anti-myc monoclonal antibodies, prepared as described above, were added individually to 1 mL of the each of these protein supernatants. The microspheres were gently mixed, incubated for two hours at 25° C., washed twice with 1 mL of DBPS, centrifuged to remove the supernatant and finally resuspended in 1 mL of DPBS buffer. Forty-eight μL of anti-myc IgG coupled microspheres from individual reactions with full length human LEPR and with each of the human LEPR domain proteins were withdrawn and mixed together in 3.6 mL of PBS+20 mg/mL BSA+0.05% sodium azide (blocking buffer).
(§2) From this mixed pool, 75 μL of microspheres were plated per well on a 96 well filter plate (Millipore, Cat. No: MSBVN1250) and mixed with 25 μL of individual anti-human LEPR monoclonal antibodies (0.5 or 5 µg/mL), incubated for two hours at 25° C. and then washed twice with 200 μL of DPBS with 0.05% Tween 20 (washing buffer). […] After 30 minutes, the samples were washed twice with 200 μL of washing buffer and resuspended in 150 μL of wash buffer. The Median Fluorescence intensity (MFI) of the microspheres was measured in a Luminex Analyzer.

T1 sequence (P48357 other isoform, or with tags, fused parts or gaps limits assumed): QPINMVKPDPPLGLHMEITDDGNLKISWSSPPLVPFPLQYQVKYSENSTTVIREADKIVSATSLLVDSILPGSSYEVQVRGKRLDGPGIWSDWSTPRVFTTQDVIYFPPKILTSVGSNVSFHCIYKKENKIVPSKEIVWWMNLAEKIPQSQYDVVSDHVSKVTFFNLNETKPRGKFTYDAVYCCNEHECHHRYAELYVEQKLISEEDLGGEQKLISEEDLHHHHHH

MFI [MFI]	Binder
74	B1
40	B2
34	B3
42	B5
5500	B6
8880	B7

Molecular target: T2, human LEPR CRH1 (D1,D2)-MMH (human, UniProt P48357 22-339, limits assumed)
T2 construct: domain: CRH1 (D1,D2); Transiently expressed, captured from supernatant on anti-myc beads
Assay: Luminex, myc-captured LEPR domain
Description: as §1, §2

MFI [MFI]	Binder
4720	B1
30	B2
4390	B3
682	B4
2930	B5
16000	B6
18900	B7

Molecular target: T3, human LEPR CRH1 (D1)-MMH (human, UniProt P48357 22-229, limits assumed)
T3 construct: domain: CRH1 (D1); Transiently expressed, captured from supernatant on anti-myc beads
Assay: Luminex, myc-captured LEPR domain
Description: as §1, §2

MFI [MFI]	Binder
8	B1
12	B2
12	B3
17	B4
20	B5
10	B6
13	B7

Molecular target: T4, human LEPR CRH1 (D1,D2,D3)-MMH (human, UniProt P48357 22-427, limits assumed)
T4 construct: domain: CRH1-Ig (D1,D2,D3); Transiently expressed, captured from supernatant on anti-myc beads; also called CRH1-Ig (D1, D2, D3)
Assay: Luminex, myc-captured LEPR domain
Description: as §1, §2

MFI [MFI]	Binder
2560	B1
22	B2
2800	B3
2060	B5
3330	B6
6570	B7

Molecular target: T5, human LEPR Ig-CRH2-FNIII-MMH (human, UniProt P48357 330-839, limits assumed)
T5 construct: domain: Ig-CRH2-FNIII; Transiently expressed, captured from supernatant on anti-myc beads
Assay: Luminex, myc-captured LEPR domain
Description: as §1, §2

T5 sequence (P48357 other isoform, or with tags, fused parts or gaps limits assumed): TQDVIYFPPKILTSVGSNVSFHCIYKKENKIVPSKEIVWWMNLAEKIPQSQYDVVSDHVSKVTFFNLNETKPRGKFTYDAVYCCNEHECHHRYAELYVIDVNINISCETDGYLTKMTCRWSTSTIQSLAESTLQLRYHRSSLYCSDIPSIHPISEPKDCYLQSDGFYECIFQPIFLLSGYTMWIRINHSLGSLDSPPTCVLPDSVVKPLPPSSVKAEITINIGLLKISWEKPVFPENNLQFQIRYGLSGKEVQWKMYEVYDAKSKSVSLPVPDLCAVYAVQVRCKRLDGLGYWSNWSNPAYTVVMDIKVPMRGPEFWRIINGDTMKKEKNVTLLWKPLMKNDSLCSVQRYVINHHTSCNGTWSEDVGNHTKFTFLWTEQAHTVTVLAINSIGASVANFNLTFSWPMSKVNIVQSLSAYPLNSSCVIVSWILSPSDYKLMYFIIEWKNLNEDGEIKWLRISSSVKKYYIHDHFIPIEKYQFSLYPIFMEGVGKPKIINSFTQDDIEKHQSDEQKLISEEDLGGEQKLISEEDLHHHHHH

MFI [MFI]	Binder
110	B1
14500	B2
42	B3
16900	B4
43	B5
37	B6
468	B7

Molecular target: T6, human LEPR CRH2-MMH (human, UniProt P48357 428-634, limits assumed)
T6 construct: domain: CRH2; Transiently expressed, captured from supernatant on anti-myc beads
Assay: Luminex, myc-captured LEPR domain
Description: as §1, §2

T6 sequence (P48357 other isoform, or with tags, fused parts or gaps limits assumed): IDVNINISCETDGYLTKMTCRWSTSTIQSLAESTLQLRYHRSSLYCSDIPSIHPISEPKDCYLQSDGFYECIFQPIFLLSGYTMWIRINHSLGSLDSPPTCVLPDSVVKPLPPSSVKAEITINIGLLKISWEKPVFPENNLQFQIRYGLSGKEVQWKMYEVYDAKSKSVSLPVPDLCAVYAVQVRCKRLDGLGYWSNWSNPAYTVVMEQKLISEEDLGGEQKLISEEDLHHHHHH

MFI [MFI]	Binder
16	B1
17	B2
33	B3
65	B4
15	B5
39	B6
165	B7

Molecular target: T7, human LEPR FNIII-MMH (human, UniProt P48357 636-839, limits assumed)
T7 construct: domain: FNIII; Transiently expressed, captured from supernatant on anti-myc beads
Assay: Luminex, myc-captured LEPR domain
Description: as §1, §2

T7 sequence (P48357 other isoform, or with tags, fused parts or gaps limits assumed): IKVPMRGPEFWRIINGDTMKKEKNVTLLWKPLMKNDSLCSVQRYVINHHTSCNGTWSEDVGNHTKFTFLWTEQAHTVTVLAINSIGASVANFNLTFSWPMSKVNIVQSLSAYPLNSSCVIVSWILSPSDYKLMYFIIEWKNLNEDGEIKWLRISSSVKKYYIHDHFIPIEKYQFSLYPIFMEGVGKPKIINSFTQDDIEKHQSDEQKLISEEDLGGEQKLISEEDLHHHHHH

MFI [MFI]	Binder
6	B1
230	B2
10	B3
32	B4
13	B5
14	B6
25	B7

Molecular target: T8, human LEPR Ig (D3)-MMH (human, UniProt P48357 340-427, limits assumed)
T8 construct: domain: Ig (D3); Transiently expressed, captured from supernatant on anti-myc beads
Assay: Luminex, myc-captured LEPR domain
Description: as §1, §2

T8 sequence (P48357 other isoform, or with tags, fused parts or gaps limits assumed): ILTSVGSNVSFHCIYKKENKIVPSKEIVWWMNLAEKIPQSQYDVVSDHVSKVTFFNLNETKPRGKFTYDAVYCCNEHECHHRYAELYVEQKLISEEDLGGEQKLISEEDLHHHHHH

MFI [MFI]	Binder
10	B1
19	B2
14	B3
25	B4
24	B5
17	B6
30	B7

Molecular target: T9, human LEPR extracellular domain expressed with a C-terminal myc-myc-hexahistidine tag (hLEPR.mmh) (human, UniProt P48357 22-839)
T9 construct: also called human LEPR-MMH; monomeric human LEPR
Assay: SPR, captured mAb, 37C
Description: (§3) Equilibrium dissociation constants (KD values) for LEPR binding to purified anti-LEPR monoclonal antibodies were determined using a real-time surface plasmon resonance biosensor using a Biacore 4000 instrument. All binding studies were performed in 10 mM HEPES, 150 mM NaCl, 3 mM EDTA, and 0.05% v/v Surfactant Tween-20, pH 7.4 (HBS-ET) running buffer at 25° C. and 37° C. The Biacore sensor surface was first derivatized by amine coupling with a monoclonal mouse anti-human Fc antibody (GE, #BR-1008-39) to capture anti-LEPR monoclonal antibodies. […] Kinetic association (kₐ) and dissociation (kd) rate constants were determined by fitting the real-time binding sensorgrams to a 1:1 binding model with mass transport limitation using Scrubber 2.0c curve-fitting software. Binding dissociation equilibrium constants (KD) and dissociative half-lives (t½) were calculated from the kinetic rate constants as: […]

100 nM hLEPR-MMH Bound (RU)	Kd [nM]	koff [s⁻¹]	kon [M⁻¹ s⁻¹]	t½ [min]	Binder
77	19.8	0.000958	48500	12	B1
38	326	0.0168	51300	0.7	B2
61	21.9	0.000842	38400	14	B3
21	121	0.00256	21200	4.5	B4
73	20.7	0.000815	39400	14	B5
22	233	0.018	77000	0.6	B6
32	170	0.00576	33800	2	B7

Molecular target: T10, Macaca fascicularis LEPR extracellular domain expressed with a C-terminal myc-myc-hexahistidine tag … (Macaca fascicularis, UniProt Q9MYL0 22-837 (rhesus entry))
T10 construct: also called mfLEP.MMH
Assay: SPR, captured mAb, 25C
Description: as §3

100 nM mfLEP.MMH Bound (RU)	Kd [nM]	koff [s⁻¹]	kon [M⁻¹ s⁻¹]	t½ [min]	Binder
93	2.27	0.000137	60200	84	B1
58	82.4	0.00486	59000	2.4	B2
66	3.22	0.000141	43700	82	B3
23	58.3	0.00112	19300	10	B4
33	139	0.0123	88300	0.9	B6

Molecular target: T9, human LEPR extracellular domain …
Assay: SPR, captured mAb, 25C
Description: as §3

100 nM hLEPR-MMH Bound (RU)	Kd [nM]	koff [s⁻¹]	kon [M⁻¹ s⁻¹]	t½ [min]	Binder
51	7.93	0.000223	28100	52	B1
45	108	0.00478	44200	2.4	B2
39	10.5	0.000246	23400	47	B3
16	52.5	0.000951	18100	12	B4
54	8.08	0.000235	29100	49	B5
28	129	0.0079	61400	1.5	B6
22	75.4	0.00226	30000	5.1	B7
